Laboratory results published in patent US20040213795A1.

Biological target: Murine PD-1 fusion protein (mouse) (UniProt Q02242)
Experiment: SPR (BIAcore 3000), murine PD-1 fusion immobilized on CM5 chip, antibody 25 nM to 500 nM in flow

Chain of Murine PD-1 fusion protein (mouse) (Q02242 25-167): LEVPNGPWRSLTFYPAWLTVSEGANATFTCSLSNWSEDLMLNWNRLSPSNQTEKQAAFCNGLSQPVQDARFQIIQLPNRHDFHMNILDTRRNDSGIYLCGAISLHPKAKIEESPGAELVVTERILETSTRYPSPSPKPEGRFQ

Ka: 2.6e+06 M⁻¹
Kd: 380 nM
B1: Anti-mouse PD1 antibody J43 (antibody, from another filing, V domains shown)
VH: EVRLLESGGGLVKPEGSLKLSCVASGFTFSDYFMSWVRQAPGKGLEWVAHIYTKSYNYATYYSGSVKGRFTISRDDSRSMVYLQMNNLRTEDTATYYCTRDGSGYPSLDFWGQGTQVTVSS
VL: YELTQPPSASVNVGETVKITCSGDQLPKYFADWFHQRSDQTILQVIYDDNKRPSGIPERISGSSSGTTATLTIRDVRAEDEGDYYCFSGYVDSDSKLYVFGSGTQLTVLG
